Experimental findings from paper PMC9080631 are described below.

As a reminder, the Kd is the constant that tells how readily two partners part at equilibrium.

The target in this series is T1, alpha-methylacyl-CoA racemase (AMACR) (UniProt Q9UHK6 1-382).
T1 sequence: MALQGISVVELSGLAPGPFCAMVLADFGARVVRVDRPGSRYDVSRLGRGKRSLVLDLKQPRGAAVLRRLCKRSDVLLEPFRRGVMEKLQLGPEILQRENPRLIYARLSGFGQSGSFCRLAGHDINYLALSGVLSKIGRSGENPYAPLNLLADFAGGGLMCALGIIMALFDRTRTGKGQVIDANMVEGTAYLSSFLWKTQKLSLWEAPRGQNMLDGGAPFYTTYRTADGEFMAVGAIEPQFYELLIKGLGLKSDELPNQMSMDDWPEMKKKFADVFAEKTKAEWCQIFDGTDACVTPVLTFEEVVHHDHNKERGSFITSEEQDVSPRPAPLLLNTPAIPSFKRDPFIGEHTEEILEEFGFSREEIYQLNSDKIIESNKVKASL
Briefly: ELAA.

B1: truncated B38 (N30) (ssDNA)
DNA: AAAAATTTTTCCTTGTATGTCATTCTCTCA
Take B1: the affinity, expressed as Kd, was 173 ± 91.8 nM.

B2: truncated A38 (N30) (ssDNA)
DNA: CTTTATGTGTCGGGATCAGATACACATCCG
Take B2: the Kd was 813 ± 405 nM.

B3: DC14 (dimeric truncated C14) (ssDNA)
DNA: AACCAAATATCTACGCATCATTTTTCCTTTAACCAAATATCTACGCATCATTTTTCCTTT
The molecule B3 displayed an equilibrium dissociation constant (Kd) of 66.6 ± 17 nM. Compared with the last molecule, the Kd is about 12-fold lower.

B4: truncated A24 (N30) (ssDNA)
DNA: TGAACTACTTAGTTTTATCCACTTATCCTG
B4 displayed a dissociation constant (Kd) of 477 ± 170 nM. Against the preceding molecule, the Kd is about 7.2-fold higher.

B5: truncated C20 (N30) (ssDNA)
DNA: ACTTTTATCTCTCCTAACCTGTCCTGGGGT
With B5, the Kd stood at 206 ± 36.4 nM. This Kd is about 2.3-fold lower than that of the molecule before.

B6: truncated B4 (N30) (ssDNA)
DNA: GTCGAACCGTAGGGGCTATCTGTTGTGGGC
In the case of B6, binding was put at a Kd of 869 ± 215 nM.

B7: truncated C14 (N30) (ssDNA)
DNA: AACCAAATATCTACGCATCATTTTTCCTTT
In turn, B7 had a dissociation constant Kd of 150 ± 55.8 nM. This Kd is about 5.8-fold lower than that of the molecule before.
